The results in this text go back to patent publication US20120328616A1 (Amgen, published 2012).

The target in one experiment is T1, human FGFR1c (human, UniProt P11362 22-822).
T1 construct: Full length (GenBank NP-075598), expressed on transfected 293T cells; also called huFGFR1c; FGFR1c alone
In words: flow cytometry, transfected HEK293T.

In experiment [1] the target is T2, huBeta_Klotho (1-507) (muBetaKLOTHO 506F-1045S) (human; murine, UniProt Q99N32 1-1043).
T2 construct: also called Chimera 2; Construct 2
As to the kind of experiment: flow cytometry, transfected HEK-293T.

Experiment [2] deals with T3, huBeta_Klotho (1-633, 852-1044) (muBeta KLOTHO 632G-849Q) (human; murine, UniProt Q86Z14 1-1044).
T3 construct: also called Chimera 10; Construct 10
As to the kind of experiment: flow cytometry, transfected HEK-293T.

The target in experiment [3] is T4, huBeta_Klotho (1-736, 967-1044) (muBeta KLOTHO 735A-963S) (human; murine, UniProt Q86Z14 1-1044).
T4 construct: also called Chimera 11; Construct 11
In words: flow cytometry, transfected HEK-293T.

Another experiment concerns the target T5, murine β-Klotho (murine, UniProt Q99N32 1-1043).
T5 construct: Full length (GenBank NP-112457), transiently expressed on HEK-293T cells; also called mu β-klotho; mouse β-Klotho
T5 sequence: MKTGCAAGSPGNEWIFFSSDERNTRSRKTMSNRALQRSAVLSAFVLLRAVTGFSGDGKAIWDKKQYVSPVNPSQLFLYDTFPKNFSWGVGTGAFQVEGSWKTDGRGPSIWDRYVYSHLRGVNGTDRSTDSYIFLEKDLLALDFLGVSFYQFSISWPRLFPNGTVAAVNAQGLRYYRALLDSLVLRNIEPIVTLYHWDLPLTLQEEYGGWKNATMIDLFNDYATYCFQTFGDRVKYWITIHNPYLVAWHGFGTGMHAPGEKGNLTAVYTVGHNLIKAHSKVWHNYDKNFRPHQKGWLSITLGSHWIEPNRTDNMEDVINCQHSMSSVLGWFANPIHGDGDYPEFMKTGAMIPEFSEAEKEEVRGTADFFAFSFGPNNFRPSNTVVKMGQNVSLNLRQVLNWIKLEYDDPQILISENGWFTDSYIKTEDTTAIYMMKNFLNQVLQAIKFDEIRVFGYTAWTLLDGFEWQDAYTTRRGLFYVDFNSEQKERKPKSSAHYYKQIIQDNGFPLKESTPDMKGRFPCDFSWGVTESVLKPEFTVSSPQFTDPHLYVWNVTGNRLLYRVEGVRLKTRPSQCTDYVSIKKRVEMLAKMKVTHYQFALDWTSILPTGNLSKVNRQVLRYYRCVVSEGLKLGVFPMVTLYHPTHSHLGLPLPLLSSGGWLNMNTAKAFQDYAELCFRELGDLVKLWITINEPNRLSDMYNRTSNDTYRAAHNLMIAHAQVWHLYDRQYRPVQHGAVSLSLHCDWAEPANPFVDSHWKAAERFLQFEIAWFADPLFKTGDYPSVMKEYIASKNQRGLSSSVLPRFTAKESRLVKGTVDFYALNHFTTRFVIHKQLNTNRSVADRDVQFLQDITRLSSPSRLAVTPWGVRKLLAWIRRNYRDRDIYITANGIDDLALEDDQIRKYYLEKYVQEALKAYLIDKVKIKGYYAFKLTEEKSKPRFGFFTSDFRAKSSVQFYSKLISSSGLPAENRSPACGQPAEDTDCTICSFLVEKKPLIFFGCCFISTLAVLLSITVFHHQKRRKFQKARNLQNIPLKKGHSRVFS
In words: flow cytometry, transfected HEK-293T.

Experiment [4] addresses T6, huBeta_Klotho (1-301, 509-743, 967-1044) (muBeta KLOTHO 302-506, 742-964) (human; murine, UniProt Q86Z14 1-1044).
T6 construct: also called Chimera 14; Construct 14
T6 chain: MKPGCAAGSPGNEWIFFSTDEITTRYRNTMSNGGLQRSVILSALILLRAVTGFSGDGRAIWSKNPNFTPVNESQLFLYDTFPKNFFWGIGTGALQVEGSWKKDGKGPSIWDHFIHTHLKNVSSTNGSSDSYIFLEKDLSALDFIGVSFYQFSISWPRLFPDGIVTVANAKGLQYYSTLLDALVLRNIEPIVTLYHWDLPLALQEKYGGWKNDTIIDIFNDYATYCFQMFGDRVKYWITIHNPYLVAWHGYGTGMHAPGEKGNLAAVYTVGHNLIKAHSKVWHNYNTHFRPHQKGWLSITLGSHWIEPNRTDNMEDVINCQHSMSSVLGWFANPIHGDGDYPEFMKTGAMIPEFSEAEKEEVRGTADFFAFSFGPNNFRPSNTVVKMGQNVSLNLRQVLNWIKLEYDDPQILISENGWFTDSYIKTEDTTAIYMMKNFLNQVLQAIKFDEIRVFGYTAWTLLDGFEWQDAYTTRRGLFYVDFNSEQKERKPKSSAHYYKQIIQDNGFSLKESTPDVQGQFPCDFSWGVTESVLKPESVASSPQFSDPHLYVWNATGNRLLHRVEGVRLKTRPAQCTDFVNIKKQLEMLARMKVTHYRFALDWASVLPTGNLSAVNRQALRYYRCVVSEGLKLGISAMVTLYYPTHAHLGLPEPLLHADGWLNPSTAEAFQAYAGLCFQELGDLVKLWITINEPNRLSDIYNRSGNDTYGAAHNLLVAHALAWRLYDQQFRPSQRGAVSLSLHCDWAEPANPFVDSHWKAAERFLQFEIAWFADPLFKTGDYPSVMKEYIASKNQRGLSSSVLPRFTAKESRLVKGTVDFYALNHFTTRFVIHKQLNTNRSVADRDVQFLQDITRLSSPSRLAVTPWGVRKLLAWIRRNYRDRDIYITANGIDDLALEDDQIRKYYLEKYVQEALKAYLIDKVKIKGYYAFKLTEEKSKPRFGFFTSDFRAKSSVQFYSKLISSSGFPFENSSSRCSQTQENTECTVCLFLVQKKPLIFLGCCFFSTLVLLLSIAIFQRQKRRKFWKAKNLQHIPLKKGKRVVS
In words: flow cytometry, transfected HEK-293T.

B1: 54A1.1 (antibody, V domains shown)
VH: QVQLVQSGAEVKKPGASVKVSCKASGYTFTSYDINWVRQATGQGLEWMGWMNPHSGNTGYAQKFQGRVTMTRNTSINTAYMELSSLRSEDTAVYYCAKYNWNYGAFDFWGQGTMVTVSS
VL: DIQMAQSPSSLSASVGDRVTITCQASQDISIYLNWYQLKPGKAPKLLIYDVSNLETGVPSRFSGGGSGTDFTFTISSLQPEDIATYYCQQYDNLPLTFGPGTKVDIKR
B1: the binding result is given as “no binding” with human FGFR1c; “binds” in experiment [1]; “binds” in experiment [2]; “binds” in experiment [3]; “no binding” with murine β-Klotho; “no binding” in experiment [4].
